Target: T1, GST-CTU2 (Arabidopsis thaliana (Mouse-ear cress), UniProt O65628)
T1 chain: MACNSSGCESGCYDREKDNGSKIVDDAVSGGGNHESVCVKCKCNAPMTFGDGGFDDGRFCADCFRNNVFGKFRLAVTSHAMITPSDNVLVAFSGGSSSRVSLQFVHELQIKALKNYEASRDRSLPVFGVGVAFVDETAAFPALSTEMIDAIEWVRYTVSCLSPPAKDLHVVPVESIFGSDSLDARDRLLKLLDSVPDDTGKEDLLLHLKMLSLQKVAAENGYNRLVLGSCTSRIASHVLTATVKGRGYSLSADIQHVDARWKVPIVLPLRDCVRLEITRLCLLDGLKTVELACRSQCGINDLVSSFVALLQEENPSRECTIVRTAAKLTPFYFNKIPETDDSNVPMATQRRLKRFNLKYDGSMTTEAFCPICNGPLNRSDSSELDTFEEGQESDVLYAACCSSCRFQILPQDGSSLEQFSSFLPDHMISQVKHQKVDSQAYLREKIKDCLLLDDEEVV
Test: GST pull-down

- binding result: binds
B1: ROL5-His (protein)
chain: MEAKNKKAVASRLCCLCNLRRPVLKRPKTLQQICRECFYEVFEEEIHQVIVQNRLFKSGERVAIGASGGKDSTVLAYVLSELNRRHNYGLDLFLLSIDEGITGYRDDSLETVKRNEVQYGLPLKIVSYKDLYGWTMDEIVKMIGLKNNCTFCGVFRRQALDRGAALLKVEKLVTGHNADDIAETVLLNILRGDIARLSRCTSITTGEDGPIPRCKPFKYTYEKEIVMYAYFKKLDYFSTECIYSPNAYRGFAREFIKDLERIRPRAILDIIKSGEDFRIATTTKMPEQGTCERCGYISSQKWCKACVLLEGLNRGLPKMGIGRPRGVNGDHNKETKKPGSVAKSIESKQCGSLDF
